Source: patent US20200149053A1, “MICROORGANISMS PROGRAMMED TO PRODUCE IMMUNE MODULATORS AND ANTI-CANCER THERAPEUTICS IN TUMOR CELLS” (Synlogic Operating Company, Inc., priority 2017, published 2020)

Experiments:
IgG (coating control) [1] = test: ELISA, IgG coated plate, E. coli extract (1/2), anti-V5-HRP, TMB
IgG (coating control) [2] = test: ELISA, IgG coated plate, E. coli extract, anti-V5-HRP, TMB
[3] = biological target: biotinylated-mPD1 (mouse) (UniProt Q02242); test: whole cell ELISA, scFv displayed on E. coli Nissle, biotinylated mPD1, streptavidin-HRP, TMB
Biotinylated IgG = test: whole cell ELISA, scFv displayed on E. coli Nissle, biotinylated IgG as negative control, streptavidin-HRP, TMB
NK cells = settings: upon treatment; cited from earlier work
IgG (coating control) [4] = test: ELISA, IgG coated plate, bacterial supernatant
[5] = biological target: T1, mouseCD47 (recombinant) (mouse) (UniProt Q61735); test: ELISA, mCD47 coated plate, bacterial supernatant
T1 sequence (looked up): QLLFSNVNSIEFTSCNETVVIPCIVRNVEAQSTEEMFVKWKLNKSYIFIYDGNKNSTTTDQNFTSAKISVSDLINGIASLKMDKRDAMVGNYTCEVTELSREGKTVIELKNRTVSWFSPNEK

PD1 on mouse EL4 cells = biological target: T2, PD1 on mouse EL4 cells (Mus musculus, UniProt Q02242); test: Flow cytometric analysis of anti-PD1-scFv binding to EL4 cells, PDL1 competition
T2 construct: EL4 are a mouse lymphoma cell line which expresses PD1 on its cell surface; endogenous in cells; host or cells: EL4 (mouse lymphoma)
T2 sequence (Q02242 25-288): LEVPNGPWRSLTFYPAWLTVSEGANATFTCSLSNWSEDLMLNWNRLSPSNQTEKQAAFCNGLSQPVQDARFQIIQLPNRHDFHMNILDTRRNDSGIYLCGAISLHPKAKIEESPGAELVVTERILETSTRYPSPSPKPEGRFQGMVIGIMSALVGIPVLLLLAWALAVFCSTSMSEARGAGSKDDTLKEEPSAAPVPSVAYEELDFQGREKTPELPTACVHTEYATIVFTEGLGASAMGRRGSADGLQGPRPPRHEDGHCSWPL
Experimental: To determine whether anti-PD1-scFv expressed in E. coli binds to surface PD1 on mouse EL4 cells, flow cytometric analysis was performed using EL4 cells. EL4 are a mouse lymphoma cell line which expresses PD1 on its cell surface.
EL4 cells were grown in Dulbecco's Modified Eagle's Medium (DMEM) with 10% FBS. Cells were spun down, supernatant was aspirated, pellet was resuspended in 1 nil D-PBS, transferred into chilled assay tubes (1×10^6 cells), and washed 2-3 times in D-PBS with 0.5% BSA. Cells were resuspended in PBS with 0.5% BSA, to which the purified scFv-V5 and anti-V5-FITC antibody were added and incubated for 1 hour at room temperature. Negative control left out scFv-V5. Cells were resuspended in 0.5 ml PBS and analyzed on a flow cytometer.
EL4 are a mouse lymphoma cell line which expresses PD1 on its cell surface.
EL4 cells were grown in Dulbecco's Modified Eagle's Medium (DMEM) with 10% FBS and 1% Penicillin-Streptomycin Cells were spun down, supernatant was aspirated, pellet was resuspended in 1 ml D-PBS, transferred into chilled assay tubes (1×10^6 cells), and washed 3 times in D-PBS. Cells were resuspended in D-PBS with 0.5% BSA, to which the purified scFv-V5 and anti-V5-FITC antibody were added and incubated for 1 hour at room temperature. Negative control left out secreted J43-scFv-V5. Cells were then resuspended in 0.5 ml PBS and analyzed on a flow cytometer. Results are shown in (FIG. 64).
Next, a competition assay was conducted to determine whether PDL1 could inhibit the binding of the anti-PD1-scFv secreted by the genetically engineered bacteria from binding to murine PD1. EL4 cells were grown and flow cytometry protocol was conducted essentially as described above except that PDL1 was added at various concentrations ([…]) during the incubation of the secreted anti-PD1-scFv-V5. Rat-IgG was used as a negative control of secreted scFv.

PD1 = biological target: T3, PD1 (Mus musculus, UniProt Q02242); test: ELISA binding assay of bacterial extracts (J43-scFv); settings: α-V5-HRP
T3 construct: purchased Rndsystems
T3 sequence (Q02242 25-288): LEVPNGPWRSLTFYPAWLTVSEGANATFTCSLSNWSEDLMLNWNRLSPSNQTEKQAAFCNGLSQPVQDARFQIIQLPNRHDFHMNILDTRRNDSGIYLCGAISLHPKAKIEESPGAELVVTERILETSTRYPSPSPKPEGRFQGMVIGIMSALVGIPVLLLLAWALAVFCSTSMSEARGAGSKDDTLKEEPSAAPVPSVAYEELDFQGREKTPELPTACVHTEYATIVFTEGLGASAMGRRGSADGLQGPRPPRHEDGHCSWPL
Experimental: E. coli comprising either tet-inducible J43-Anti-PD1-scFv-V5 or wild type controls were grown overnight in LB medium. […] Same amount of tetracycline was added to wild type control cultures.

anti-mCD40L antibody = test: CD40 ELISA binding assay, plate coated with anti-mCD40L antibody; settings: clarified supernatant
Experimental: (§1) Cultures were diluted 1:100 in LB and grown shaking (200 rpm) to an optical density of 0.8, at which time the cultures were cooled down to room temperature and anhydrous tetracycline (ATC) was added to cultures at a concentration of 100 ng/mL, to induce expression of mCD40L1 and mCD40L2.
(§2) After 18 hours of induction, cells were spun down, and supernatant was collected. To generate cell free medium, the clarified supernatant was further filtered through a 0.22 micron filter to remove any remaining bacteria and placed on ice.

mCD40 = biological target: T4, mCD40 (Mus musculus, UniProt P27512); test: CD40 ELISA binding assay, plate coated with mCD40; settings: clarified supernatant; for CD40 ELISA signal, coating material IgG / CD40 ELISA signal, coating material PBS: control coating
T4 sequence (P27512 20-289): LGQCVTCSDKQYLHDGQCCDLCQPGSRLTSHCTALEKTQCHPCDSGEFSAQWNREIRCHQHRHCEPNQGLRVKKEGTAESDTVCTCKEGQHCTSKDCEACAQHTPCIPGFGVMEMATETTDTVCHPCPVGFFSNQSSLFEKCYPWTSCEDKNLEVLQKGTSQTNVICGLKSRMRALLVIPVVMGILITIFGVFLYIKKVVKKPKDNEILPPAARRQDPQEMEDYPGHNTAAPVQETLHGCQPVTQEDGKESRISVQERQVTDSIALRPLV
Experimental: as §1, §2

[6] = biological target: T5, secreted mCD40L1 (47-260) (mouse, UniProt P27548 47-260); test: ELISA, mCD40 coated plate
T5 construct: range 47-260; also called Secreted CD40-L1; SYN3366 supernatant
T5 sequence (looked up): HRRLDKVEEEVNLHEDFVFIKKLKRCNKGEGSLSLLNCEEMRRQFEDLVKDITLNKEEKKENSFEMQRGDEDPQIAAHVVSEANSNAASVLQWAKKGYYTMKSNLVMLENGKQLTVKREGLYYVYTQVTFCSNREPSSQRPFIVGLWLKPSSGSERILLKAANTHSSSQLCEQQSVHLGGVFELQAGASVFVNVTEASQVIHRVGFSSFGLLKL

[7] = biological target: T6, recombinant SIRPα (Rndsystems) (mouse, UniProt P97797 32-373); test: flow cytometry competition on CT26 cells
T6 construct: also called recombinant mSIRPα
T6 sequence (looked up): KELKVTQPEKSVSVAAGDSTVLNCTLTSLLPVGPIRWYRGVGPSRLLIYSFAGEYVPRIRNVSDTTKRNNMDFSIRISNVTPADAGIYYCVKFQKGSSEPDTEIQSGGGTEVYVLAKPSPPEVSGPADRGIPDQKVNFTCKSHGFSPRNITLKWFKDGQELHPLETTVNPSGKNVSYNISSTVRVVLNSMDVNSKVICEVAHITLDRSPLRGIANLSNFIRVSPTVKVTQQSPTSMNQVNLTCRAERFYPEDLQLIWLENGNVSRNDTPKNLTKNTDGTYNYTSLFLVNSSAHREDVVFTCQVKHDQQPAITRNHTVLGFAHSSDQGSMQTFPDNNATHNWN

J43-Anti-PD1-scFv-V5
ELISA signal at 450 nm (IgG (coating control) [1]): 0.11
ELISA signal at 450 nm (IgG (coating control) [2]): 0.13

LppOmpA-FLAG-J43scFv-V5-HIS displayed on E. coli Nissle SYN2798
OD450 [3]: 0.421
OD450 (Biotinylated IgG): 0.133

recombinant human IL-15: recombinant human IL-15 of a first-in-human clinical trial
expansion of NK cells (NK cells): 10 fold
proliferation of γδT cells and CD8+ T cells (NK cells): significantly increased

B1: secreted anti-mCD47 scFv (scFv, from a related filing)
scFv: QVKLLQSGAALVKPGASVKMSCQASGYSFTDYWVTWVKQSHGQSLEWIGEIYPSNTVTNFNDNFKGKATLTVDKSTSTAYMELSRLTSEDSAIYYCTRIGNSGYRVGWFIYWGQGTLVTVLSGGGGSGGGGSGGGGSDTVLTQSPALAVSPGERVTISCKASESVSSHMHWYQQKPGQQPKLLIYKASNLASGVPARFSGSGSGTDFTLTIDPVEADDTATYFCQQGWNGPFTFGAGTRLELKRADAAGSGELGGSGKPIPNPLLGLDSTGSGHHHHHH
ELISA signal (IgG (coating control) [4]): 0.067
ELISA signal [5]: 0.527

B2: J43-scFv-V5: anti-PD1 single-chain variable fragment based on J43 monoclonal antibody, V5 tagged, expressed in E. coli (protein)
scFv: MQLEVRLLESGGGLVKPEGSLKLSCVASGFTFSDYFMSWVRQAPGKGLEWVAHIYTKSYNYATYYSGSVKGRFTISRDDSRSMVYLQMNNLRTEDTATYYCTRDGSGYPSLDFWGQGTQVTVSSGGGGSGGGGSGGGGSYELTQPPSASVNVGETVKITCSGDQLPKYFADWFHQRSDQTILQVIYDDNKRPSGIPERISGSSSGTTATLTIRDVRAEDEGDYYCFSGYVDSDSKLYVFGSGTQLTVLGKGELNSKLEGKPIPNPLLGLDSTRTGHHHHHH
PDL1 competition against binding to mPD1 on EL4 cells (PD1 on mouse EL4 cells; PDL1 added at various concentrations): PDL1 competed in a dose dependent manner
binding to surface PD1 on EL4 cells (flow cytometry) (PD1 on mouse EL4 cells; purified scFv, anti-V5-FITC): population shift is observed
staining of EL4 cells with different amounts of secreted scFv (PD1 on mouse EL4 cells; secreted scFv, increasing amounts): dose-dependent staining of the EL4 cells was observed
binding to PD1 on EL4 cells (flow cytometry) (PD1 on mouse EL4 cells; secreted scFv, anti-V5-FITC): population shift is observed
Signal intensity at 450 nm, IgG coating (PD1; bacterial extract (1/2)): 0.11
Signal intensity at 450 nm, PBS coating (PD1; bacterial extract (1/2)): 0.10
Signal intensity at 450 nm, mPD1 coating (PD1; bacterial extract (1/2)): 0.90
Signal intensity at 450 nm, IgG coating (PD1; bacterial extract): 0.13
Signal intensity at 450 nm, PBS coating (PD1; bacterial extract): 0.11
Signal intensity at 450 nm, mPD1 coating (PD1; bacterial extract): 1.41

B3: Secreted CD40-L2: mCD40L2 (112-260), soluble form of mCD40L, secreted by SYN3367 (protein)
chain: MQRGDEDPQIAAHVVSEANSNAASVLQWAKKGYYTMKSNLVMLENGKQLTVKREGLYYVYTQVTFCSNREPSSQRPFIVGLWLKPSSGSERILLKAANTHSSSQLCEQQSVHLGGVFELQAGASVFVNVTEASQVIHRVGFSSFGLLKL
modifications: left off: small tags and cut ends
CD40 ELISA signal, coating material Anti-mCD40L (anti-mCD40L antibody): 0.825
CD40 ELISA signal, coating material mCD40 (mCD40): 0.639
CD40 ELISA signal, coating material IgG (mCD40): 0.052
CD40 ELISA signal, coating material PBS (mCD40): 0.05

B4: mCD40 (receptor, mouse, UniProt P27512 24-193, looked up)
chain: VTCSDKQYLHDGQCCDLCQPGSRLTSHCTALEKTQCHPCDSGEFSAQWNREIRCHQHRHCEPNQGLRVKKEGTAESDTVCTCKEGQHCTSKDCEACAQHTPCIPGFGVMEMATETTDTVCHPCPVGFFSNQSSLFEKCYPWTSCEDKNLEVLQKGTSQTNVICGLKSRMR
binding result [6]: binds

B5: CD47 on mouse CT26 cells (receptor, UniProt Q61735 19-303, looked up)
chain: QLLFSNVNSIEFTSCNETVVIPCIVRNVEAQSTEEMFVKWKLNKSYIFIYDGNKNSTTTDQNFTSAKISVSDLINGIASLKMDKRDAMVGNYTCEVTELSREGKTVIELKNRTVSWFSPNEKILIVIFPILAILLFWGKFGILTLKYKSSHTNKRIILLLVAGLVLTVIVVVGAILLIPGEKPVKNASGLGLIVISTGILILLQYNVFMTAFGMTSFTIAILITQVLGYVLALVGLCLCIMACEPVHGPLLISGLGIIALAELLGLVYMKFVASNQRTIQPPRNR
notes: whole, on cells; also called murine CD47 on CT26 cells
binding result [7]: binds

B6: Secreted CD40-L1: mCD40L1 (47-260), extracellular portion of mCD40L, secreted by SYN3366 (protein)
chain: HRRLDKVEEEVNLHEDFVFIKKLKRCNKGEGSLSLLNCEEMRRQFEDLVKDITLNKEEKKENSFEMQRGDEDPQIAAHVVSEANSNAASVLQWAKKGYYTMKSNLVMLENGKQLTVKREGLYYVYTQVTFCSNREPSSQRPFIVGLWLKPSSGSERILLKAANTHSSSQLCEQQSVHLGGVFELQAGASVFVNVTEASQVIHRVGFSSFGLLKL
modifications: left off: small tags and cut ends
CD40 ELISA signal, coating material Anti-mCD40L (anti-mCD40L antibody): 0.394
CD40 ELISA signal, coating material mCD40 (mCD40): 0.231
CD40 ELISA signal, coating material IgG (mCD40): 0.052
CD40 ELISA signal, coating material PBS (mCD40): 0.049
